Assay results reported in publication PMC8892339 (2022).

What was measured:
Assay in all cases: SPR, 37 °C
[1] = target: CD3ζ ITAM3 NC peptide ITAM3 (Homo sapiens, UniProt P20963, both ITAM tyrosines phosphorylated peptide; tSH2-GFP fusion)
[2] = target: CD3ζ ITAM3 N peptide ITAM3 (Homo sapiens, UniProt P20963, N-terminal ITAM tyrosine monophosphorylated peptide; tSH2-GFP fusion)
[3] = target: CD3ζ ITAM3 C peptide ITAM3 (Homo sapiens, UniProt P20963, C-terminal ITAM tyrosine monophosphorylated peptide; tSH2-GFP fusion)
Chain of CD3ζ ITAM3 C peptide ITAM3 (P20963 128-162): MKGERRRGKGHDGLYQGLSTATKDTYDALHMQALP

Chain of CD3ζ ITAM3 N peptide ITAM3 (P20963 128-162): as above
Chain of CD3ζ ITAM3 NC peptide ITAM3 (P20963 128-162): as above

B1: ZAP70 tandem SH2 (protein)
chain: MPDPAAHLPFFYGSISRAEAEEHLKLAGMADGLFLLRQCLRSLGGYVLSLVHDVRFHHFPIERQLNGTYAIAGGKAHCGPAELCEFYSRDPDGLPCNLRKPCNRPSGLEPQPGVFDCLRDAMVRDYVRQTWKLEGEALEQAIISQAPQVEKLIATTAHERMPWYHSSLTREEAERKLYSGAQTDGKFLLRPRKEQGTYALSLIYGKTVYHYLISQDKAGKYCIPEGTKFDTLWQLVEYLKLKADGLIYCLKEACPNSSA
**Q.** With B1 as the binder, how does the Kd [1] read?
**A.** Its Kd is 0.0962 µM.

**Q.** And the Kd [2]?
**A.** Its Kd is 20.7 µM.

**Q.** What about the Kd [3] of the same binder?
**A.** The Kd was 7.52 µM.
